# Literature values, collected in patent US10603364B2, “Lysosomal targeting and uses thereof” (Shire Human Genetic Therapies, Inc., priority 2014, dated 2020).
# How the values were obtained:
# IGF-I receptor = IGF-I receptor (Homo sapiens, UniProt P08069)
# [1] = target: M6P/IGF II receptor (cation-independent mannose-6-phosphate receptor) (Homo sapiens, UniProt P11717)
# Sequence of M6P/IGF II receptor (cation-independent mannose-6-phosphate receptor) (P11717 41-2491): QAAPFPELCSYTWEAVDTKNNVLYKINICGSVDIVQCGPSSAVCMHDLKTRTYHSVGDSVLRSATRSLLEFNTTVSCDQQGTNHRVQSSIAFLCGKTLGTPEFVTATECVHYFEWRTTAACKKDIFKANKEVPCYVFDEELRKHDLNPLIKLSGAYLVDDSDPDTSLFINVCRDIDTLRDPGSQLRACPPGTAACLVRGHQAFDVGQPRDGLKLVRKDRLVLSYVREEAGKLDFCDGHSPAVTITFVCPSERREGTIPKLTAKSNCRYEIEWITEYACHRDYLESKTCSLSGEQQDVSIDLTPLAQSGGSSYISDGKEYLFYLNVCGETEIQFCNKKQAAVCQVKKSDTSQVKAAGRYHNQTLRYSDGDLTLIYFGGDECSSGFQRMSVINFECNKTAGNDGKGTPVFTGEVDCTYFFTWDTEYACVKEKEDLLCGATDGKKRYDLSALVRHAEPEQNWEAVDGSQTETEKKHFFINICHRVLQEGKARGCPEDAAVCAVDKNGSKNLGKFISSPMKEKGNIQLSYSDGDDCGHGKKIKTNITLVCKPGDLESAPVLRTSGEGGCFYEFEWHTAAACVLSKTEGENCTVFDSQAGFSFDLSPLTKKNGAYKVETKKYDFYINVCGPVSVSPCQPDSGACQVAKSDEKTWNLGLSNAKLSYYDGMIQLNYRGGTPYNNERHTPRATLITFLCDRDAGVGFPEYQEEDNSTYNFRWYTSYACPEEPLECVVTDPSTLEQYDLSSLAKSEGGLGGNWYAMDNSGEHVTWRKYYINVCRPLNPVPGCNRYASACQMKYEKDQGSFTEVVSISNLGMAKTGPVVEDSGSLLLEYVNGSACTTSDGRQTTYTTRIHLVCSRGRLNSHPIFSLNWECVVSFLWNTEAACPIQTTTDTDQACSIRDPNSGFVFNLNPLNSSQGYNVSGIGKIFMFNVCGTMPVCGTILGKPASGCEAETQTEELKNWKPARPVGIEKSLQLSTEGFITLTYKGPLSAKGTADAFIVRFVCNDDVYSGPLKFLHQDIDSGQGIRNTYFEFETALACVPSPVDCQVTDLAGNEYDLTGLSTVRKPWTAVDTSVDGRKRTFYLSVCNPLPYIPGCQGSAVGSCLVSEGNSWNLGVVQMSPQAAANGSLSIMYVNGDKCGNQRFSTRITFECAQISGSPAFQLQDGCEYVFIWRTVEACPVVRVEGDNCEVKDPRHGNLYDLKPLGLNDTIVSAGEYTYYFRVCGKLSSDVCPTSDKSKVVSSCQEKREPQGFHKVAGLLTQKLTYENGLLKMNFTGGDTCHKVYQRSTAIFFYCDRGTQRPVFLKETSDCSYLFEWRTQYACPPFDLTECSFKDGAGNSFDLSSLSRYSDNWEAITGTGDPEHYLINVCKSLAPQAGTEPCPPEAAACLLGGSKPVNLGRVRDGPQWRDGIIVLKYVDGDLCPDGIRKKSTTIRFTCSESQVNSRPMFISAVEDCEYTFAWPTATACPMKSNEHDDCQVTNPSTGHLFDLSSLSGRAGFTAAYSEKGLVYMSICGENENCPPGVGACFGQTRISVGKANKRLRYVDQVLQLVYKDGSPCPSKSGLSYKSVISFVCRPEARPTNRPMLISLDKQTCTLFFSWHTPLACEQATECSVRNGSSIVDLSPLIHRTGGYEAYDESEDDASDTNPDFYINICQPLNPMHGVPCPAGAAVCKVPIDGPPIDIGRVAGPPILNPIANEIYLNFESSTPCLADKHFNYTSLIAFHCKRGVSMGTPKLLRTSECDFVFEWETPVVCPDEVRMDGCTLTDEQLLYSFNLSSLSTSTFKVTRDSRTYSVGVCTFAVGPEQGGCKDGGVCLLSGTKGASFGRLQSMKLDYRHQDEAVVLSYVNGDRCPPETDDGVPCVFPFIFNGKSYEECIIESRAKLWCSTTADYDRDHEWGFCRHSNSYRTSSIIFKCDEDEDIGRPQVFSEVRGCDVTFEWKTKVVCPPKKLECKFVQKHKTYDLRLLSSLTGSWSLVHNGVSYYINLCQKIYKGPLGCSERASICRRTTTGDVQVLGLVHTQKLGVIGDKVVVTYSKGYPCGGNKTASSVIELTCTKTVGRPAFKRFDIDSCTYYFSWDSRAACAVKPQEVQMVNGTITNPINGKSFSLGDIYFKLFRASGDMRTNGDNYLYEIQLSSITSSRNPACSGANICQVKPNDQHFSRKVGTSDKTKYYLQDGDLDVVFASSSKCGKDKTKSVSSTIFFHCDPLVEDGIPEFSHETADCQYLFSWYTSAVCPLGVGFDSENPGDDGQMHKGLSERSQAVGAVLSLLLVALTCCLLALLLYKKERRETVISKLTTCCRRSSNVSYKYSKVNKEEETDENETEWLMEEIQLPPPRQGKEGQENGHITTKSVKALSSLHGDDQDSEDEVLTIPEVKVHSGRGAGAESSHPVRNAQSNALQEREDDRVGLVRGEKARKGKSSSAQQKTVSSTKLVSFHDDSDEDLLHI
# Sequence of IGF-I receptor (P08069 31-736 limits assumed, species assumed): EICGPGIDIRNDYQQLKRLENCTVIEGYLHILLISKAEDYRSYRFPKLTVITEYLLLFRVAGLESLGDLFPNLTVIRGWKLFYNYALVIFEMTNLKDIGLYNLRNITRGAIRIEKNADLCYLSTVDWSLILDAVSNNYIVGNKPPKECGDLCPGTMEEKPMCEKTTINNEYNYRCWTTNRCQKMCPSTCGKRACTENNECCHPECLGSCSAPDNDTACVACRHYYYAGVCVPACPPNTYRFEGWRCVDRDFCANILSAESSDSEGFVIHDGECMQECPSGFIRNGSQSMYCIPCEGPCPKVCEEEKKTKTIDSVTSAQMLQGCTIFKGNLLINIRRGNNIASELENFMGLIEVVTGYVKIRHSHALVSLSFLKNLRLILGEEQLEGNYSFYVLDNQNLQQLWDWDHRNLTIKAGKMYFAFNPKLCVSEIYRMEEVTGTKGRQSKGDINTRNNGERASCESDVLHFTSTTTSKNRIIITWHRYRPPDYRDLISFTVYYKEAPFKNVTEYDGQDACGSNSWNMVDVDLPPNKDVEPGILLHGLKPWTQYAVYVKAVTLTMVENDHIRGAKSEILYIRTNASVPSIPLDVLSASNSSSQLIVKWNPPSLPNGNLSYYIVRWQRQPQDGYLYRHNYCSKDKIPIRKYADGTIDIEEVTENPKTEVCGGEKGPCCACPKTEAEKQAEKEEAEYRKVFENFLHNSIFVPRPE
# Sequence of IGF-I receptor (P08069 741-1367 partner limits assumed, species assumed): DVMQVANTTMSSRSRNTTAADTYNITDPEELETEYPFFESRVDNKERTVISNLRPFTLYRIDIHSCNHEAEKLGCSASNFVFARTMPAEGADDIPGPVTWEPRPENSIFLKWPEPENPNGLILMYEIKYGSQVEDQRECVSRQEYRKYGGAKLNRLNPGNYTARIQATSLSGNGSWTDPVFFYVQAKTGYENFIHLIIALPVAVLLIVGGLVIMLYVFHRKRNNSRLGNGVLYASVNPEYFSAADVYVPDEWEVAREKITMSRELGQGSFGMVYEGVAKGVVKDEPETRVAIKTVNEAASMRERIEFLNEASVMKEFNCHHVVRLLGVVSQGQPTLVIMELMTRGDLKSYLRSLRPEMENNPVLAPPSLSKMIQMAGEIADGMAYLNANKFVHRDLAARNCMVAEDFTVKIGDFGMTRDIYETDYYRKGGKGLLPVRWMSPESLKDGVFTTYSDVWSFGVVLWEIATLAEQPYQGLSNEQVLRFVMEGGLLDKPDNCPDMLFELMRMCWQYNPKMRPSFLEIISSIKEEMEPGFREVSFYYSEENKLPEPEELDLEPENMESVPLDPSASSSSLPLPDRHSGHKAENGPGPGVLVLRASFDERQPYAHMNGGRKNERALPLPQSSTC
substance,measurement,setting,value
"IGF-II sequence containing amino acid 8-67: amino acid residues 8-67 of the Insulin-like Growth Factor II peptide sequence, SEQ ID NO:21",decrease in ability to bind IGF-I receptor compared to full-length IGF-II,IGF-I receptor,30 fold
same,higher affinity for M6P/IGF II receptor compared to full-length IGF-II,[1],2-10 fold
